Read-outs that look alike come from different tables or passages of the source.
T1: human MAdCAM (on CHO cells) (human, UniProt Q13477)
T1 chain: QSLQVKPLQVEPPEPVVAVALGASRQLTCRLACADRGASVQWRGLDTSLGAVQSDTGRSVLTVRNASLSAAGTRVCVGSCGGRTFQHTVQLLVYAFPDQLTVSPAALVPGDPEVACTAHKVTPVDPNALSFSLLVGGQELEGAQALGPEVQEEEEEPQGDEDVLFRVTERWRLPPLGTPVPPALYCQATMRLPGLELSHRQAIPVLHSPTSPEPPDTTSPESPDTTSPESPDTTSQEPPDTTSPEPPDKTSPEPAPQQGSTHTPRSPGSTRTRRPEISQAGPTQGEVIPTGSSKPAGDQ

T2: cynomolgus/human MAdCAM chimera (on CHO cells) (cynomolgus/human)
T2 chain: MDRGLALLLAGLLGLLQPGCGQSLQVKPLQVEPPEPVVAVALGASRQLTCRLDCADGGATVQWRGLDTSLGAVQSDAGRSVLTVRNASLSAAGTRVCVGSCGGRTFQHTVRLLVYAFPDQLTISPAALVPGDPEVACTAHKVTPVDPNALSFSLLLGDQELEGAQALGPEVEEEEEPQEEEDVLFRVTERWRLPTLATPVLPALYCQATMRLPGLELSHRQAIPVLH

T3: mouse MAdCAM (mouse, UniProt Q61826)
T3 chain: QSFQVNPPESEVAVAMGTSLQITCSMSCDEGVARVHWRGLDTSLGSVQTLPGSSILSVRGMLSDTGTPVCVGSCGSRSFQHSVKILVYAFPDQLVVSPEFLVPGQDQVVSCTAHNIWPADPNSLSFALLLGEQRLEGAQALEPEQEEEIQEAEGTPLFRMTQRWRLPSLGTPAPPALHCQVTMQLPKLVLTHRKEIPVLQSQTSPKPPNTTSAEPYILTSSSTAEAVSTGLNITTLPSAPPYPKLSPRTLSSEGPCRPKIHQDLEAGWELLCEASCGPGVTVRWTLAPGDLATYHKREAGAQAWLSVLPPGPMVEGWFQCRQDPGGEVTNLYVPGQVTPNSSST


Assays:
[1] = biological target: T1, human MAdCAM (on CHO cells); test: competition, JY cell adhesion to CHO
[2] = biological target: T2, cynomolgus/human MAdCAM chimera (on CHO …); test: competition, JY cell adhesion to CHO
MAdCAM-IgG1 Fc fusion [3] = biological target: MAdCAM-IgG1 Fc fusion (human); test: SPR, protocol 1
MAdCAM-IgG1 Fc fusion [4] = biological target: MAdCAM-IgG1 Fc fusion (human); test: SPR, protocol 2
mouse MAdCAM = biological target: T3, mouse MAdCAM; test: ELISA
MAdCAM-IgG1 Fc fusion [5] = biological target: MAdCAM-IgG1 Fc fusion (human); test: competition, JY cell adhesion
MAdCAM-IgG1 Fc fusion [6] = biological target: MAdCAM-IgG1 Fc fusion (human); test: competition, JY cell adhesion; remark: listed apart in the source
[7] = biological target: T2, cynomolgus/human MAdCAM chimera (on CHO …); test: FACS

Chain of MAdCAM-IgG1 Fc fusion (human) (chain, as listed by the source): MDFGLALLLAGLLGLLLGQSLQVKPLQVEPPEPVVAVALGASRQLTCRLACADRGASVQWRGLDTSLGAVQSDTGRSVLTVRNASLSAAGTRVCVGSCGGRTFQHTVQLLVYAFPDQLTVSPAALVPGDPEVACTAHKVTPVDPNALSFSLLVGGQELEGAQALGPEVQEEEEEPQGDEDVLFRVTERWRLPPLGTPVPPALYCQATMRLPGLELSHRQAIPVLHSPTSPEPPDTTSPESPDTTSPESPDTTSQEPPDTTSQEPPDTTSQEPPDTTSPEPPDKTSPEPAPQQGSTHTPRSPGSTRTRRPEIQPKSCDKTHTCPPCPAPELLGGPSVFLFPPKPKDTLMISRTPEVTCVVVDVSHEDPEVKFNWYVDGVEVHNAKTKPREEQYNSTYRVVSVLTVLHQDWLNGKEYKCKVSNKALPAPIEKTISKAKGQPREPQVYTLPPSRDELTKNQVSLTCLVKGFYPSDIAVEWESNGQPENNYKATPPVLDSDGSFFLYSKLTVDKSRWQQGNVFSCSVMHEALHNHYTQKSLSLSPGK

| Binder | IC50 [1] [µg/mL] | IC50 [2] [µg/mL] | Kd (MAdCAM-IgG1 Fc fusion [3]) [pM] | Kd (MAdCAM-IgG1 Fc fusion [4]) [pM] | binding result (mouse MAdCAM) | IC50 (MAdCAM-IgG1 Fc fusion [5]) [µg/mL] | IC50 (MAdCAM-IgG1 Fc fusion [6]) [µg/mL] | binding result [7] |
| --- | --- | --- | --- | --- | --- | --- | --- | --- |
| 7.26.4 (antibody, V domains shown) VH: QVQLVQSGAEVKKPGASVKVSCEASGYTFTSYGIDWVRQAPGQGLEWMGWISVYSGNTNYAQKLQGRVTMSTDTSTSTAYMELRSLRSDDTAVYYCAREGSSSSGDYYYGMDVWGQGTTVTVSS VL: DIVMTQTPLSLSVTPGQPASISCKSNQSLLYSDGKTYLFWYLQKPGQPPQLLIYEVSNRFSGVPDRFSGSGSGTDFTLKISRVEAEDVGVYYCMQSIQLPWTFGQGTKVEIKR | 0.574 | 0.96 |  |  |  |  |  |  |
| 6.34.2 (antibody, V domains shown) VH: QVQLVESGGGVVQPGRSLRLSCAASGFTFSSYGMHWVRQAPGKGLEWVAVISNDGNNKYYADSVKGRFTISRDNSKNTLYLQMNSLSAEDTAVYYCARDSTAITYYYYGMDVWGQGTTVTVSS VL: MDMRVPAQLLGLLLLWLRGARCDIQMTQSPSSLSASVGDRVTITCRASQNISSYLNWFQQKPGKAPKLLIYAASGLKRGVPSRFSGSGSGTDFTLTIRTLQPDDFATYSCHQSYSLPFTFGPGTKVDIKR | 0.285 | 0.47 | 15.8 | < 15 | no binding | 0.013 | 0.013 |  |
| 6.77.1 (antibody, V domains shown) VH: EVQLVESGGGLVKPGGSLRLSCAASGFTFSSYSMNWVRQAPGKGLEWVSSISSSSSYIYYADSVKGRFTISRDNAKNSLYLQMNSLRAEDTAVYYCARDGYSSGWSYYYYYGMDVWGQGTTVTVSS VL: DIVMTQTPLSLSVTPGQPASISCNSSQSLLLSDGKTYLNWYLQKPGQPPQLLIYEVSNRFSGVPDRFSGSGSGTDFTLKISRVEAEDVGVYSCMQSIQLMCSFGQGTKLEIKR | 0.52 | 0.64 | 6.7 |  |  |  |  |  |
| 6.34.2-mod (antibody, V domains shown) VH: QVQLVESGGGVVQPGRSLRLSCAASGFTFSSYGMHWVRQAPGKGLEWVAVISNDGNNKYYADSVKGRFTISRDNSKNTLYLQMNSLRAEDTAVYYCARDSTAITYYYYGMDVWGQGTTVTVSS VL: MDMRVPAQLLGLLLLWLRGARCDIQMTQSPSSLSASVGDRVTITCRASQSISSYLNWYQQKPGKAPKLLIYAASGLKRGVPSRFSGSGSGTDFTLTISSLQPEDFATYYCHQSYSLPFTFGPGTKVDIKR |  |  |  |  |  |  | 0.049 |  |
| 9.8.2 (antibody, V domains shown) VH: QVQLVESGGGVVQPGRSLRLSCAASGFTFSSYGMHWVRQAPGKGLEWVAVIWYDGSNEYYADSVKGRFTISRDNSKNTLYLQMNSLRAEDTAVYYCARGAYHFAYWGQGTLVTVSS VL: DMRVPAQLLGLLLLWLSVAGARCDIQMTQSPSSLSASVGDRVTITCQASQDISNYLNWYQQKPGKAPKLLIYDASNLETGVPSRFSGSGSGTDFTFTISSLQPEDIATYSCQHSDNLSITFGQGTRLEIKR | 0.44 | 0.83 | 100 | 32.5 | no binding | 0.02 |  |  |
| 6.73.2 (antibody, V domains shown) VH: EVQLLESGGDLVQPGGSLRLSCAASGFTFRSYAMNWVRQAPGKGLEWVSVISGRGGTTYYADSVKGRFTISRDNSKNTLYLQMNSLRAEDAAVYYCAKIAVAGEGLYYYYGMDVWGQGTTVTVSS VL: MDMRVPAQLLGLLLLWLRGARCDIQMTQSPSSLSASVGDRVTFTCRASQNITNYLNWYQQKPGKAPKLLIYAASSLPRGVPSRFRGSGSGTDFTLTISSLQPEDFATYYCQQSYSNPPECGFGQGTTLDIKR | 0.369 |  | 93 |  | no binding | 0.02 |  | no binding |
| 1.8.2 (antibody, V domains shown) VH: EVQLVESGGGLVKPGGSLRLSCVVSGFTFTNAWMIWVRQAPGKGLEWVGRIKRKTDGGTTDYAAPVKGRFTISRDDSKNTLYLQMNSLKTEDTAVYYCTTGGVAEDYWGQGTLVTVSS VL: not shown | 0.424 |  | 35 |  |  | 0.027 |  |  |
| 7.16.6 (antibody, V domains shown) VH: QVQLVQSGAEVKKPGASVKVSCKASGYTFTSYGINWVRQAPGQGLEWMGWISVYSGNTNYAQKVQGRVTMTADTSTSTAYMDLRSLRSDDTAVYYCAREGSSSSGDYYYGMDVWGQGTTVTVSS VL: DIVMTQTPLSLSVTPGQPASISCKSSQSLLHTDGTTYLYWYLQKPGQPPQLLIYEVSNRFSGVPDRFSGSGSGTDFTLKISRVEAEDVGIYYCMQNIQLPWTFGQGTKVEIKR |  | 0.72 | 1.5 | 4.8 |  | 0.019 |  |  |
| 1.7.2 (antibody, V domains shown) VH: EVQLVESGGGLVKPGGSLRLSCVASGFTFTNAWMIWVRQAPGKGLEWVGRIKRKTDGGTTDYAAPVKGRFTISRDDSKNTLYLQMNSLKTEDTAVYYCTTGGVAEDYWGQGTLVTVSS VL: not shown | 0.502 |  | 42 |  |  | 0.03 |  |  |
| 6.14.2 (antibody, V domains shown) VH: EVQLLESGGGLVQPGGSLRLSCAASGLTFNNSAMTWVRQAPGKGLEWVSTTSGSGGTTYYADSVKGRFTISRDSPKNTLYLQMNSLRAEDTAVYYCAARGYSYGTTPYEYWGQGTLVTVSS VL: MDMRVPAQLLGLLLLWLRGARCDIQMTQSPSSLSASVGDRVTITCRASRSISSYLNWYQQKPGKAPKVLIFFVSSLQSGVPSRFSGSGSGTDFTLTISSLQPEDFATYYCQQNYIPPITFGQGTRLEIRR | 0.291 | 0.53 | 7.7 | < 10 | no binding | 0.011 |  |  |
| 6.67.1 (antibody, V domains shown) VH: QVQLQESGPGLVKPSETLSLTCTVSGDSISSNYWSWIRQPAGKGLEWIGRIYTSGGTNSNPSLRGRVTILADTSKNQFSLKLSSVTAADTAVYYCARDRITIIRGLIPSFFDYWGQGTLVTVSS VL: not shown | 0.298 | 0.75 |  |  |  |  |  |  |
| 6.22.2 (antibody, V domains shown) VH: QVQLVESGGGVVQPGRSLRLSCAASGHTFSSDGMHWVRQAPGKGLEWVAIIWYDGSNKYYADSVKGRFTISRDNSKNTLYLQMNSLRAEDTAVYYCARDPGYYYGMDVWGQGTTVTVSS VL: EIVLTQSPDFQSVTPKEKVTITCRASQRIGSSLHWYQQKPDQSPKLLIKYASQSFSGVPSRFSGSGSGTNFTLTINGLEAEDAATYYCHQSGRLPLTFGGGTKVEIKR | 0.573 | 0.83 |  |  |  |  |  |  |
| 7.20.5 (antibody, V domains shown) VH: QVQLQESGPGLVKPSETLSLTCTVSGSSISSYHWNWIRQPAGKGLEWIGRIYTSGSTNYNPSLKSRVTMSLDTSKNQFSLKLSSVTAADTAVYYCAREGVRYYYASGSYYYGLDVWGQGTTVTVSS VL: not shown | 0.387 | 0.62 |  |  |  |  |  |  |

— US20050232917 (published 2005)
